Measured values taken from patent US10487337B2, “Methods for monocot plant improvement” (Agresearch Limited, priority 2014, dated 2019).

B1: Picea sitchensis PPD: PEAPOD protein of Picea sitchensis, SEQ ID NO: 5 (protein, listed as Picea sitchensis)
chain: MRGGERAPGSRPSLDKPLEELTEEDIFQLTREDCRRYLKEKGMRRPSWNKSQAIQQVLSLKSLFESKPNQQSKKPSKHKPATLQFETARDSTFAQSSVSQEQSLGFSWSKEVLDKGTAERQRLCSDSQEAHEIPRLGSKPPQSNTEGKRCAHDGHGRKSAQPLVRLPANFKNDCSNRQSSHTSESQPDTLLRSDSFQQPTAQLTIFYAGMVNVYDDVPLDKA
B2: Trifolium repens PPD: PEAPOD protein of Trifolium repens, SEQ ID NO: 11 (protein, listed as Trifolium repens)
chain: MNGGSTVSFRSILDKPLNQLTEDDISQLTREDCRRFLKDKGMRRPSWNKSQAIQQVISLKALLEPTDDDLPAPVGVSSAIHHHHHHHPQPPQRNLNEAPVKGSDLDDTGFHTAEDLNKSTSTAVEIPTETNDANVVKSSGGCVASGSFGQMTIFYCGKVNVYDGVSPDKARSIMQLAACPSSFPQDNLLNKNAAVWASPCNIPIDKDVLFPNDTAILQVAQTDKMVEYPLQYREKGSIARDADVEGQASRNASLQRYREKRKDRGRSKGNKLTGITSSNFEMYLNLPVKLHASNGNSSRSSTDSPPQPRLPLVSGGSAENQPKVTLPIDLNDKDVQEC
B3: Amborella trichopoda PPD: PEAPOD protein of Amborella trichopoda, SEQ ID NO: 12 (protein, listed as Amborella trichopoda)
chain: MTAGDGSIRSILDKPLEELTEEDISQLTREDCRRYLKEKGMRRPSWNKYQAIQQVLSLKGLLEGKPCDDNSDVFSHRSPITVIPNVGSMREKEKAVNIADPEISGSHQPNFRREIHETTRERALPASDWPPSQEPVSQMTIFYAGAVNVYNDIPEDKVQAIIYLAGKSDSLQQTNVIRTGPDQCIASAASPSLNDLHSRRIHPTSNITTSQSLRVATSLPVGPHSEVPKTRKTSVQRFLEKRKDRGRLKGTLASGGSSKRGSSCLELYATSRLKSEGVATTTTQSNMNNVVVSPSNPRMPLNPGSCSWVEN
B4: Musa acuminate PPD: PEAPOD protein of Musa acuminate, SEQ ID NO: 108/114 (protein, listed as Musa acuminata)
chain: MNPGETTPPSPLDKPLAELTEEDIAQLTREDCRRFLKAKGMRRPSWNKSQAIQQVISLKALLEGRPGCDDCPAGGGILQKLLTSSPSEPLSPPQDSPPPAPKEGGSGSQPLAKEPSPYRRRDPIPPPYSAGNPTCQTPIAGADLPHPPEKRCPSPRLTAEVPVGQMTIFYDGMVNVYDGVSADQARSIMELAASPVCFDDPTGAFSPARPPAFRFPPGLPRPAPVPTAPSFVGTFPISPAGKRCYSYCSFRSSVSLLTTTEGPTSRKASLQRYLEKRKDRYGHLPTESILLVSGSGGGSAKGELRGHPFEGKPIPNPLLGLDSTRTGHHHHHHGS
B5: Selaginella moellendorffii PPD: PEAPOD protein of Selaginella moellendorffii, SEQ ID NO: 110/116 (protein, listed as Selaginella moellendorffii)
chain: MSSMVDFLGIEEKVSTSVSAERLKKLEELTDEDVMQLTREDCRRYLKEKGMRRPSWNKAQAVQQLLSLKSLCDPSPASSGAAKRSPSPPLDEAPAKKPMAMTSIDLKAAAAVDAANLTMFYDGAVSVFDDVSPDKASLFPLAYAIMLLAGNVKSWPSINVAANTNKVVISSYELPQARKASLQRFLQRRREKTAKEAASKGNSNKSPCHGESSGKHASDATDPATSPLLTEVSSGSGGGSAKGELRGHPFEGKPIPNPLLGLDSTRTGHHHHHHGS

Experiments:
[1] = system: Wild-type (Col-0), Δppd mutant and transgenic PPD-OX seedlings; experiment: Hypocotyl elongation of seedlings on exogenous GA or PAC; format: in vivo, Arabidopsis thaliana
Source text: Giberellic acid (GA) treatment is known to reduce levels of the DELLA proteins (including RGA1) which are GA repressors; to determine the relationship between PPD, DELLA and the GA signalling pathway the applicants performed a yeast two-hybrid (Y2H) analysis between PPD and DELLA (RGA1) and applied gibberellic acid (GA) hormone and GA biosynthesis inhibitor (paclobutrazol, PAC) to wild type, Δppd mutant, and the Δppd mutant PPD over expressor (PPD-OX).
For exogenous applications of GA or PAC seeds were surface sterilised with 70% ethanol, 0.01% Triton X-100 for 10 min, followed by 100% ethanol for 5 min, air dried on sterile filter paper, and transferred to media plates containing half-strength MS salts, 1% sucrose and 0.8% agar. Plates were incubated for 5 days at 4° C. in the dark then transferred to 24° C. with a 14 h light/10 h dark daily cycle. Light was provided by fluorescent tubes (Philips TLD 58W/865) at an intensity of 100 μM m^−2s^−1. Wild-type (Col-0) Δppd mutant and transgenic PPD-OX seedlings were grown for five days on medium with different concentrations of GA (FIG. 11A) or PAC (FIG. 11B). GA (ACROS organics), and PAC (Sigma-Aldrich) were dissolved in ethanol and acetone respectively, filter sterilised and incorporated into media plates. Ethanol or acetone (0.5%) was used for mock treatments. Seedlings were grown at 24° C. under a 14 h light/10 h dark daily cycle for 5 days before hypocotyl lengths were analysed (n=35). Each treatment was repeated twice; error bars=standard error of the mean.

[2] = system: Arabidopsis Δppd mutant; experiment: Complementation of the Arabidopsis Δppd mutant leaf phenotype; format: in vivo; conditions: CaMV35s promoter, Arabidopsis thaliana ecotype Landsberg erecta, FIG. 13
Source text: The functionality of any PEAPOD sequence can be confirmed by complementation of the Arabidopsis Δppd mutant leaf phenotype. Complementation of the Arabidopsis Δppd mutant leaf phenotype was first used to identify the Arabidopsis PPD gene (White 2006). This was seen by a restoration of the wild type flattened leaf phenotype and normal rosette shape as opposed to the domed leaf and the twisting of the rosette to a “propeller” phenotype.
Arabidopsis thaliana (L.) Heynh ecotype Ler can be used as wild-type (WT). The Δppd loss of function deletion mutant (with PPD1 and PPD2 deleted) is as previously described in White 2006, PNAS 103, 13238-13243.
Plants are grown in a temperature-controlled glasshouse at a continuous 21° C. or in a controlled environment cabinet at 23° C. in 16-h light_8-h dark cycles.
Constructs above can be transformed into Arabidopsis by the floral dip infiltration method (Clough and Bent, 1998, Plant J 16, 735-43). The Δppd line is transformed to express the PPD polypeptides by standard techniques. Transgenic plants are confirmed by standard PCR analysis techniques with a combination of transgene-specific and T-DNA primers.
Complementation of the Δppd line to produce a wild-type leaf and rosette phenotype in T1 seedlings (the off-spring of the infiltrated plant) confirms PEAPOD functionality of the introduced gene, which can be shown in photographs.

[3] = system: ryegrass plants; experiment: Leaf biomass analysis of grass transformants; format: in vivo; conditions: constitutive promoter, observed leaf growth, approximately 6 weeks
Experimental: (§1) An equal number (typically 4-10) of tillers were taken from WT and ryegrass plants transformed with Arabidopsis PPD under one of two green tissue promoters. Tillers were planted into plastic grow bags containing potting mix and pruned to be of equal height. […] The increase in leaf/shoot biomass can be quantified removing the attached above ground portion (leaves and shoots) and drying them at 65° C. for 48 hr then weighing the dry weights.
as §1, with “a constitutive promoter.” for “one of two green tissue promoters.”, “was” for “can be”, “weights (Table 2).” for “weights.”

[4] = system: ryegrass plants; experiment: Root biomass analysis of grass transformants; format: in vivo; conditions: constitutive promoter, root growth beyond the grow bag, approximately 6 weeks
Experimental: as §1, with “three root” for “two green tissue”, “root” for “leaf/shoot”, “was” for “can be”, “the roots” for “them”, “weights (Tables 3 and 4)” for “weights.”
as §1, with “a constitutive promoter.” for “one of two green tissue promoters.”, “root” for “leaf/shoot”, “was” for “can be”, “the roots” for “them”, “weights (Table 5).” for “weights.”

Molecule | PEAPOD functionality by complementation of the Δppd deletion mutant [2] | leaf biomass/growth/length/branching compared to WT plants [3] | root biomass/growth/length/branching compared to WT plants [4] | also measured
CC(C)(C)[C@@H](O)[C@@H](Cc1ccc(Cl)cc1)n1cncn1 (racemic) [PAC, paclobutrazol] | – | – | – | hypocotyl length ([1]; PPD-OX seedlings, PAC beyond 0.1 μM): decrease in hypocotyl length; hypocotyl elongation ([1]; PPD-OX seedlings, PAC up to 0.1 μM): relatively insensitive; hypocotyl elongation ([1]; wild type seedlings, 0 to 10 μM PAC, 5 days): dose dependent decrease of hypocotyl elongation; hypocotyl elongation ([1]; Δppd seedlings, 0 to 10 μM PAC, compared with wild type): larger reduction in hypocotyl elongation
C=C1C[C@]23C[C@@]1(O)CC[C@H]2[C@@]12C=C[C@H](O)[C@@](C)(C(=O)O1)[C@H]2[C@@H]3C(=O)O [GA, gibberellic acid] | – | – | – | hypocotyl elongation ([1]; PPD-OX seedlings, 1 μM GA, 5 days): increased hypocotyl elongation; hypocotyl elongation ([1]; PPD-OX seedlings, up to 10 μM GA, 5 days): hypersensitive elongation; hypocotyl elongation ([1]; WT seedlings, 5-50 μM GA, 5 days): elongation of the WT hypocotyl occurred in a dose dependent manner; hypocotyl elongation ([1]; wild type (WT) seedlings, 1 μM GA, 5 days): did not promote elongation; hypocotyl elongation ([1]; Δppd seedlings, 1 μM GA, 5 days): increased hypocotyl elongation; hypocotyl elongation ([1]; Δppd seedlings, up to 5 μM GA, 5 days): hypersensitive elongation
B1 | functionally equivalent | increase in leaf biomass/growth/length/branching | increase in root biomass/growth/length/branching | –
B2 | functionally equivalent | increase in leaf biomass/growth/length/branching | increase in root biomass/growth/length/branching | –
B3 | functionally equivalent | increase in leaf biomass/growth/length/branching | increase in root biomass/growth/length/branching | –
B4 | functionally equivalent | increase in leaf biomass/growth/length/branching | increase in root biomass/growth/length/branching | –
B5 | functionally equivalent | increase in leaf biomass/growth/length/branching | increase in root biomass/growth/length/branching | –
